Source: paper doi:10.1101/2025.06.18.660434

Molecular target: GST-fusion RACK1 (UniProt P63244)
Experiment: pull-down

## His-tagged PKAcα (from UniProt P17612 1-351) (enzyme)
  Kd: 0.032 µM
